Target: F-actin (rabbit skeletal muscle actin, polymerised) (rabbit, UniProt P68135 1-377)
Assay: co-sedimentation

- binding result: binds
B1: FHOD1 wild-type, full length (natural protein)
chain: MAGGEDRGDGEPVSVVTVRVQYLEDTDPFACANFPEPRRAPTCSLDGALPLGAQIPAVHRLLGAPLKLEDCALQVSPSGYYLDTELSLEEQREMLEGFYEEISKGRKPTLILRTQLSVRVNAILEKLYSSSGPELRRSLFSLKQIFQEDKDLVPEFVHSEGLSCLIRVGAAADHNYQSYILRALGQLMLFVDGMLGVVAHSDTIQWLYTLCASLSRLVVKTALKLLLVFVEYSENNAPLFIRAVNSVASTTGAPPWANLVSILEEKNGADPELLVYTVTLINKTLAALPDQDSFYDVTDALEQQGMEALVQRHLGTAGTDVDLRTQLVLYENALKLEDGDIEEAPGAGGRRERRKPSSEEGKRSRRSLEGGGCPARAPEPGPTGPASPVGPTSSTGPALLTGPASSPVGPPSGLQASVNLFPTISVAPSADTSSERSIYKARFLENVAAAETEKQVALAQGRAETLAGAMPNEAGGHPDARQLWDSPETAPAARTPQSPAPCVLLRAQRSLAPEPKEPLIPASPKAEPIWELPTRAPRLSIGDLDFSDLGEDEDQDMLNVESVEAGKDIPAPSPPLPLLSGVPPPPPLPPPPPIKGPFPPPPPLPLAAPLPHSVPDSSALPTKRKTVKLFWRELKLAGGHGVSASRFGPCATLWASLDPVSVDTARLEHLFESRAKEVLPSKKAGEGRRTMTTVLDPKRSNAINIGLTTLPPVHVIKAALLNFDEFAVSKDGIEKLLTMMPTEEERQKIEEAQLANPDIPLGPAENFLMTLASIGGLAARLQLWAFKLDYDSMEREIAEPLFDLKVGMEQLVQNATFRCILATLLAVGNFLNGSQSSGFELSYLEKVSEVKDTVRRQSLLHHLCSLVLQTRPESSDLYSEIPALTRCAKVDFEQLTENLGQLERRSRAAEESLRSLAKHELAPALRARLTHFLDQCARRVAMLRIVHRRVCNRFHAFLLYLGYTPQAAREVRIMQFCHTLREFALEYRTCRERVLQQQQKQATYRERNKTRGRMITETEKFSGVAGEAPSNPSVPVAVSSGPGRGDADSHASMKSLLTSRPEDTTHNRRSRGMVQSSSPIMPTVGPSTASPEEPPGSSLPSDTSDEIMDLLVQSVTKSSPRALAARERKRSRGNRKSLRRTLKSGLGDDLVQALGLSKGPGLEV

From article doi:10.1101/2025.06.13.659598 (bioRxiv, 2025)
